Results published in patent US9427478B2, “Enzymatic conjugation of polypeptides” (Innate Pharma, priority 2013, dated 2016).

Key:
[1] = SE-HPLC, physical stability after freeze/thaw and shaking; format: physicochemical; details: physical stability study
Procedure: Physical stability was measured after a Freeze/Thaw (F/T) cycle in which ADC products are frozen at least 2 hours at −20° C. and thawed at least 1 hour at room temperature three times and tested 24 h after the last Freeze/Thaw cycle, and after shaking in which ADC products samples are shaken with a “vortex” 3 min at 3000 rpm and tested 24 h after this shaking stress application. […] Measurements were also made by SE-HPLC, performed with the Acquity UPLC from WATERS® with a BEH200 SEC 1.7 μm column. SE-HPLC is used to evaluate soluble and covalent/non-covalent aggregates levels and the proteic fragments that could be generated.

[2] = SE-HPLC, chemical stability on storage; format: physicochemical
Procedure: A chemical stability study monitored the molecular integrity of the ADC products that could be impacted following 3 months storage at +40° C. (thermal stress accelerated degradation storage conditions). Samples stored at +40° C. were compared to samples stored at +5° C., as assessed by SE-HPLC, performed with the Acquity UPLC from WATERS® with a BEH200 SEC 1.7 μm column.

For ADCETRIS ®, the “fragments, in words” value [1] was “significant levels of fragments”, the “fragments, in words” value ([2]; chemical stability at 5° C.) was “significant levels of fragments” and the Fragments % ([2]; storage at 5° C., T1 W (1 week)) was 1.77%.
